Measurements taken from patent US20230140293A1.

Assays:
Experiment in all cases: cell-based or functional assay
[1] = target: HIV-1 426c.SM (N276D) Env on Env-pseudotyped virus produced in 293T cells (HIV-1)
[2] = target: CH0505TF.gly3.197 Env, Env-pseudotyped virus produced in 293T cells (HIV-1)
[3] = target: HIV-1 Env 426c, Env-pseudotyped virus produced in 293T cells (HIV-1 clade C strain 426c)
[4] = target: HIV-1 426c.DM (N460D/N463D) Env on Env-pseudotyped virus produced in 293s/GnTI-/- cells (Man5-enrichment) (HIV-1)
[5] = target: CH0505TF.gly4 Env, Env-pseudotyped virus produced in 293S GnTI- cells (Man5-enriched) (HIV-1)
[6] = target: CH0505TF.gly3.461 Env, Env-pseudotyped virus produced in 293S GnTI- cells (Man5-enriched) (HIV-1)
[7] = target: CH0505TF Env, Env-pseudotyped virus produced in 293T cells (HIV-1)
[8] = target: CH0505TF.gly3.276 Env, Env-pseudotyped virus produced in 293S GnTI- cells (Man5-enriched) (HIV-1)
[9] = target: HIV-1 Env 426c.TM (N276D.N460D.N463D), Env-pseudotyped virus produced in 293S GnTI- cells (Man5-enriched) (HIV-1 clade C strain 426c)
[10] = target: HIV-1 Env 426c.TM4 (S278R.G471S.N460D.N463D), Env-pseudotyped virus produced in 293T cells (HIV-1 clade C strain 426c)
[11] = target: HIV-1 426c.TM (N276D/N460D/N463D) Env on Env-pseudotyped virus produced in 293s/GnTI-/- cells (Man5-enrichment) (HIV-1)
[12] = target: CH0505TF.gly3.197 Env, Env-pseudotyped virus produced in 293S GnTI- cells (Man5-enriched) (HIV-1)
[13] = target: CH0505TF Env, Env-pseudotyped virus produced in 293S GnTI- cells (Man5-enriched) (HIV-1)
[14] = target: HIV-1 Env 426c.TM4 (S278R.G471S.N460D.N463D), Env-pseudotyped virus produced in 293S GnTI- cells (Man5-enriched) (HIV-1 clade C strain 426c)
[15] = target: CH0505TF.G458Y Env, Env-pseudotyped virus produced in 293S GnTI- cells (Man5-enriched) (HIV-1)
[16] = target: CH0505TF.gly3.461 Env, Env-pseudotyped virus produced in 293T cells (HIV-1)
[17] = target: CH0505TF.gly3.276 Env, Env-pseudotyped virus produced in 293T cells (HIV-1)
[18] = target: HIV-1 426c.SM (N276D) Env on Env-pseudotyped virus produced in 293s/GnTI-/- cells (Man5-enrichment) (HIV-1)
[19] = target: HIV-1 426c.TM (N276D/N460D/N463D) Env on Env-pseudotyped virus produced in 293T cells (HIV-1)
[20] = target: CH0505.w4.3 Env, Env-pseudotyped virus produced in 293T cells (HIV-1)
[21] = target: HIV-1 Env 426c.DM (N460D.N463D), Env-pseudotyped virus produced in 293S GnTI- cells (Man5-enriched) (HIV-1 clade C strain 426c)
[22] = target: HIV-1 Env 426c, Env-pseudotyped virus produced in 293S GnTI- cells (Man5-enriched) (HIV-1 clade C strain 426c)
[23] = target: HIV-1 clade C strain 426c Env on Env-pseudotyped virus produced in 293T cells (HIV-1)
[24] = target: CH0505TF.G458Y Env, Env-pseudotyped virus produced in 293T cells (HIV-1)
[25] = target: CH0505TF.gly4 Env, Env-pseudotyped virus produced in 293T cells (HIV-1)
[26] = target: HIV-1 Env 426c.DM (N460D.N463D), Env-pseudotyped virus produced in 293T cells (HIV-1 clade C strain 426c)
[27] = target: HIV-1 Env 426c.SM (N276D), Env-pseudotyped virus produced in 293S GnTI- cells (Man5-enriched) (HIV-1 clade C strain 426c)
[28] = target: HIV-1 426c.DM (N460D/N463D) Env on Env-pseudotyped virus produced in 293T cells (HIV-1)
[29] = target: HIV-1 clade C strain 426c Env on Env-pseudotyped virus produced in 293s/GnTI-/- cells (Man5-enrichment) (HIV-1)
[30] = target: HIV-1 Env 426c.TM (N276D.N460D.N463D), Env-pseudotyped virus produced in 293T cells (HIV-1 clade C strain 426c)
[31] = target: HIV-1 Env 426c.SM (N276D), Env-pseudotyped virus produced in 293T cells (HIV-1 clade C strain 426c)

Substance	ID50/IC50 in TZM-bl [1] [µg/mL]	IC50 (µg/ml) in TZM-bl [2] [µg/mL]	IC50 (µg/ml) in TZM-bl [3] [µg/mL]	ID50/IC50 in TZM-bl [4] [µg/mL]	IC50 (µg/ml) in TZM-bl [5] [µg/mL]	IC50 (µg/ml) in TZM-bl [6] [µg/mL]	IC50 (µg/ml) in TZM-bl [7] [µg/mL]	IC50 (µg/ml) in TZM-bl [8] [µg/mL]	IC50 (µg/ml) in TZM-bl [9] [µg/mL]	IC50 (µg/ml) in TZM-bl [10] [µg/mL]	ID50/IC50 in TZM-bl [11] [µg/mL]	IC50 (µg/ml) in TZM-bl [12] [µg/mL]	IC50 (µg/ml) in TZM-bl [13] [µg/mL]	IC50 (µg/ml) in TZM-bl [14] [µg/mL]	IC50 (µg/ml) in TZM-bl [15] [µg/mL]	IC50 (µg/ml) in TZM-bl [16] [µg/mL]	IC50 (µg/ml) in TZM-bl [17] [µg/mL]	ID50/IC50 in TZM-bl [18] [µg/mL]	ID50/IC50 in TZM-bl [19] [µg/mL]	IC50 (µg/ml) in TZM-bl [20] [µg/mL]	also measured
F105 (antibody)	> 25	> 25	> 25	> 25	> 25	> 25	> 25	> 25	> 25	> 25	> 25	> 25	> 25	> 25	> 25	> 25	> 25	> 25	> 25	10.8	IC50 (µg/ml) in TZM-bl [21]: > 25 µg/mL; IC50 (µg/ml) in TZM-bl [22]: > 25 µg/mL; ID50/IC50 in TZM-bl [23]: > 25 µg/mL; IC50 (µg/ml) in TZM-bl [24]: > 25 µg/mL; IC50 (µg/ml) in TZM-bl [25]: > 25 µg/mL; IC50 (µg/ml) in TZM-bl [26]: > 25 µg/mL; IC50 (µg/ml) in TZM-bl [27]: > 25 µg/mL; ID50/IC50 in TZM-bl [28]: > 25 µg/mL; ID50/IC50 in TZM-bl [29]: > 25 µg/mL; IC50 (µg/ml) in TZM-bl [30]: > 25 µg/mL; IC50 (µg/ml) in TZM-bl [31]: > 25 µg/mL
DH511.2_K3 (antibody)	0.77	3.1	0.8	0.75	1.1	1.6	3.4	1.7	1.2	0.56	1.2	2.5	0.95	0.56	1.2	2.8	2.9	0.87	1.06	0.02	IC50 (µg/ml) in TZM-bl [21]: 0.75 µg/mL; IC50 (µg/ml) in TZM-bl [22]: 0.85 µg/mL; ID50/IC50 in TZM-bl [23]: 0.8 µg/mL; IC50 (µg/ml) in TZM-bl [24]: 0.6 µg/mL; IC50 (µg/ml) in TZM-bl [25]: 2.1 µg/mL; IC50 (µg/ml) in TZM-bl [26]: 1.5 µg/mL; IC50 (µg/ml) in TZM-bl [27]: 0.87 µg/mL; ID50/IC50 in TZM-bl [28]: 1.5 µg/mL; ID50/IC50 in TZM-bl [29]: 0.85 µg/mL; IC50 (µg/ml) in TZM-bl [30]: 1.06 µg/mL; IC50 (µg/ml) in TZM-bl [31]: 0.77 µg/mL
PGT151 (antibody)	0.01	0.01	0.01	2.2	0.13	> 5	0.01	> 5	2.5	0.01	2.5	> 5	> 5	2.9	> 5	0.01	0.007	1.9	0.01	> 25	IC50 (µg/ml) in TZM-bl [21]: 2.2 µg/mL; IC50 (µg/ml) in TZM-bl [22]: 1.6 µg/mL; ID50/IC50 in TZM-bl [23]: 0.01 µg/mL; IC50 (µg/ml) in TZM-bl [24]: 0.01 µg/mL; IC50 (µg/ml) in TZM-bl [25]: 0.01 µg/mL; IC50 (µg/ml) in TZM-bl [26]: 0.01 µg/mL; IC50 (µg/ml) in TZM-bl [27]: 1.9 µg/mL; ID50/IC50 in TZM-bl [28]: 0.01 µg/mL; ID50/IC50 in TZM-bl [29]: 1.6 µg/mL; IC50 (µg/ml) in TZM-bl [30]: 0.01 µg/mL; IC50 (µg/ml) in TZM-bl [31]: 0.01 µg/mL
2G12 (antibody)	> 25	> 25	> 25	> 25	> 25	> 25	> 25	> 25	> 25	> 25	> 25	> 25	> 25	> 25	> 25	> 25	> 25	> 25	> 25	> 50	IC50 (µg/ml) in TZM-bl [21]: > 25 µg/mL; IC50 (µg/ml) in TZM-bl [22]: > 25 µg/mL; ID50/IC50 in TZM-bl [23]: > 25 µg/mL; IC50 (µg/ml) in TZM-bl [24]: > 25 µg/mL; IC50 (µg/ml) in TZM-bl [25]: > 25 µg/mL; IC50 (µg/ml) in TZM-bl [26]: > 25 µg/mL; IC50 (µg/ml) in TZM-bl [27]: > 25 µg/mL; ID50/IC50 in TZM-bl [28]: > 25 µg/mL; ID50/IC50 in TZM-bl [29]: > 25 µg/mL; IC50 (µg/ml) in TZM-bl [30]: > 25 µg/mL; IC50 (µg/ml) in TZM-bl [31]: > 25 µg/mL
